According to publication doi:10.1101/2023.03.09.531510:

Key:
Experiment in all cases: protein-fragment complementation
[1] = molecular target: Hsp104 (UniProt P31539)
[2] = molecular target: Pab1 (UniProt P04147)
[3] = molecular target: Lsb3 (UniProt P43603)
[4] = molecular target: Bzz1 (UniProt P38822)
[5] = molecular target: Pkh2
[6] = molecular target: Ssb2 (UniProt P40150)
[7] = molecular target: Smi1 (UniProt P32566)
[8] = molecular target: Las17 (UniProt Q12446)
[9] = molecular target: Sbp1 (UniProt P10080)
[10] = molecular target: Cmd1 (UniProt P06787)
[11] = molecular target: Sfk1 (UniProt P35735)
[12] = molecular target: Mid2 (UniProt P36027)
[13] = molecular target: Bmh1 (UniProt P29311)
[14] = molecular target: Ysc84 (UniProt P32793)
[15] = molecular target: Arc15 (UniProt P40518)
[16] = molecular target: Arc18 (UniProt Q05933)
[17] = molecular target: Ssb1 (UniProt P11484)
[18] = molecular target: Vrp1 (UniProt P37370)
[19] = molecular target: Myo5 (UniProt Q04439)
[20] = molecular target: Abp1 (UniProt P15891)
[21] = molecular target: Ssa1 (UniProt P10591)
[22] = molecular target: Cdc10 (UniProt P25342)
[23] = molecular target: Ssz1 (UniProt P38788)
[24] = molecular target: Yor1 (UniProt P53049)
[25] = molecular target: Pfk1 (UniProt P16861)
[26] = molecular target: Nap1 (UniProt P25293)
[27] = molecular target: Rvs167 (UniProt P39743)
[28] = molecular target: Arc19 (UniProt P33204)
[29] = molecular target: Sla2 (UniProt P33338)
[30] = molecular target: Tif4631 (UniProt P39935)
[31] = molecular target: Sla1 (UniProt P32790)
[32] = molecular target: Chc1 (UniProt P22137)
[33] = molecular target: Syp1 (UniProt P25623)
[34] = molecular target: Bbc1 (UniProt P47068)
[35] = molecular target: Srv2 (UniProt P17555)
[36] = molecular target: Osh2 (UniProt Q12451)
[37] = molecular target: Sac6 (UniProt P32599)
[38] = molecular target: Arc40 (UniProt P38328)
[39] = molecular target: Ste20 (UniProt Q03497)
[40] = molecular target: Aim21 (UniProt P40563)
[41] = molecular target: Pan1 (UniProt P32521)
[42] = molecular target: Cdc3 (UniProt P32457)
[43] = molecular target: Hek2 (UniProt P38199)
[44] = molecular target: Tdh3 (UniProt P00359)
[45] = molecular target: Ygl242c (UniProt P53066)

Chain of UniProt P37370 (P37370 whole entry): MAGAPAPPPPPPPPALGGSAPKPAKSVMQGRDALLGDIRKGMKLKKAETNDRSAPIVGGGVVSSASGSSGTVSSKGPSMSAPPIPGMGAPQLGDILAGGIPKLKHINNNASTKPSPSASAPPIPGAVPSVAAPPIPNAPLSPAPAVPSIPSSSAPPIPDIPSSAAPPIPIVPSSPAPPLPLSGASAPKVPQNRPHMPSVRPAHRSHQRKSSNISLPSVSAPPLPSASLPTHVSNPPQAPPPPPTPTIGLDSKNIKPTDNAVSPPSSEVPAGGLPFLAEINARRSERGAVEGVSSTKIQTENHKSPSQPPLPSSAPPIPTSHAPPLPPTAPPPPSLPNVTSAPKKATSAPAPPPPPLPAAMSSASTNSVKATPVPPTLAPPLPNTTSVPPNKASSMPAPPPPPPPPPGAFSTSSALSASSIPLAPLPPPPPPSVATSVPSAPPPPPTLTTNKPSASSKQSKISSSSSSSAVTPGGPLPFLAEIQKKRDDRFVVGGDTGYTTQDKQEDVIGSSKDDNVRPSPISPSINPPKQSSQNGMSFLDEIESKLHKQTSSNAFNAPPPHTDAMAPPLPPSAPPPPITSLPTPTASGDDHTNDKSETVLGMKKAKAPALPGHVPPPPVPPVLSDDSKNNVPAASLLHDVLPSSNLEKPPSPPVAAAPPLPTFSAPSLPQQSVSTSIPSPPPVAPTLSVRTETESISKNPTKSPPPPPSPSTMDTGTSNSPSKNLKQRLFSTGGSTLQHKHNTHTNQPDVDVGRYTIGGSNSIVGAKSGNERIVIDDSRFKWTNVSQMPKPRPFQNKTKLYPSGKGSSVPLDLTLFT
Chain of UniProt P15891 (P15891 whole entry): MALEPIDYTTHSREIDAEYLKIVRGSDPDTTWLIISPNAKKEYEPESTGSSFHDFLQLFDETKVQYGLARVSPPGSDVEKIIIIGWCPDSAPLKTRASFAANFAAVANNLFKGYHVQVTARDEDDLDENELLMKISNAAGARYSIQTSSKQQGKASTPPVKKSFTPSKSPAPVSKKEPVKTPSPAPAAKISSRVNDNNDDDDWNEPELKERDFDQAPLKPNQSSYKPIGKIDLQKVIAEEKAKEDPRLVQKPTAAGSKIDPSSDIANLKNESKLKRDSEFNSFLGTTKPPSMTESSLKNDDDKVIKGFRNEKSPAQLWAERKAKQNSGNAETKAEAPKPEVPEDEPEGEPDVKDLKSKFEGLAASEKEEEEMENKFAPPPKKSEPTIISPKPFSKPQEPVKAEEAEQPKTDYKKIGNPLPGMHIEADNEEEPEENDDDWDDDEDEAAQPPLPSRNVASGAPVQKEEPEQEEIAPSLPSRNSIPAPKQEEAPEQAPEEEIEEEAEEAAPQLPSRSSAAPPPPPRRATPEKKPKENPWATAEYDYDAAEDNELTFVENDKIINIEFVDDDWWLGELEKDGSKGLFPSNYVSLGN
Chain of UniProt P40150 (P40150 whole entry): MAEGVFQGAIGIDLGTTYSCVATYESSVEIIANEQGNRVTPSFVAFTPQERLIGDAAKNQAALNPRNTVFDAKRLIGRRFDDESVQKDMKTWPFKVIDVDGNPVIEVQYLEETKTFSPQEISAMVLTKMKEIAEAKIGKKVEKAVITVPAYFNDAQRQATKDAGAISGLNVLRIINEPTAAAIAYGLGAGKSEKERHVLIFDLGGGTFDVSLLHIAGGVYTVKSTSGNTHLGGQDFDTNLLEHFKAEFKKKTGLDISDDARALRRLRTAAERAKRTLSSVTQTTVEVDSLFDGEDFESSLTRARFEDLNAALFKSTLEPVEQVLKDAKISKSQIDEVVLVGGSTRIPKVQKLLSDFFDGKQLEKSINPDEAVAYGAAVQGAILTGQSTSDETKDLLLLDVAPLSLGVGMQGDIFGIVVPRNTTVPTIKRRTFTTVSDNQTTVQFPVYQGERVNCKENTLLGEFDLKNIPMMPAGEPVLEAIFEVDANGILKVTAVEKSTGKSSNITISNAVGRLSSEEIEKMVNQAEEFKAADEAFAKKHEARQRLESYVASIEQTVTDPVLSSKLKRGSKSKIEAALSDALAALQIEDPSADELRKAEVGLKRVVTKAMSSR
Chain of UniProt Q12451 (Q12451 whole entry): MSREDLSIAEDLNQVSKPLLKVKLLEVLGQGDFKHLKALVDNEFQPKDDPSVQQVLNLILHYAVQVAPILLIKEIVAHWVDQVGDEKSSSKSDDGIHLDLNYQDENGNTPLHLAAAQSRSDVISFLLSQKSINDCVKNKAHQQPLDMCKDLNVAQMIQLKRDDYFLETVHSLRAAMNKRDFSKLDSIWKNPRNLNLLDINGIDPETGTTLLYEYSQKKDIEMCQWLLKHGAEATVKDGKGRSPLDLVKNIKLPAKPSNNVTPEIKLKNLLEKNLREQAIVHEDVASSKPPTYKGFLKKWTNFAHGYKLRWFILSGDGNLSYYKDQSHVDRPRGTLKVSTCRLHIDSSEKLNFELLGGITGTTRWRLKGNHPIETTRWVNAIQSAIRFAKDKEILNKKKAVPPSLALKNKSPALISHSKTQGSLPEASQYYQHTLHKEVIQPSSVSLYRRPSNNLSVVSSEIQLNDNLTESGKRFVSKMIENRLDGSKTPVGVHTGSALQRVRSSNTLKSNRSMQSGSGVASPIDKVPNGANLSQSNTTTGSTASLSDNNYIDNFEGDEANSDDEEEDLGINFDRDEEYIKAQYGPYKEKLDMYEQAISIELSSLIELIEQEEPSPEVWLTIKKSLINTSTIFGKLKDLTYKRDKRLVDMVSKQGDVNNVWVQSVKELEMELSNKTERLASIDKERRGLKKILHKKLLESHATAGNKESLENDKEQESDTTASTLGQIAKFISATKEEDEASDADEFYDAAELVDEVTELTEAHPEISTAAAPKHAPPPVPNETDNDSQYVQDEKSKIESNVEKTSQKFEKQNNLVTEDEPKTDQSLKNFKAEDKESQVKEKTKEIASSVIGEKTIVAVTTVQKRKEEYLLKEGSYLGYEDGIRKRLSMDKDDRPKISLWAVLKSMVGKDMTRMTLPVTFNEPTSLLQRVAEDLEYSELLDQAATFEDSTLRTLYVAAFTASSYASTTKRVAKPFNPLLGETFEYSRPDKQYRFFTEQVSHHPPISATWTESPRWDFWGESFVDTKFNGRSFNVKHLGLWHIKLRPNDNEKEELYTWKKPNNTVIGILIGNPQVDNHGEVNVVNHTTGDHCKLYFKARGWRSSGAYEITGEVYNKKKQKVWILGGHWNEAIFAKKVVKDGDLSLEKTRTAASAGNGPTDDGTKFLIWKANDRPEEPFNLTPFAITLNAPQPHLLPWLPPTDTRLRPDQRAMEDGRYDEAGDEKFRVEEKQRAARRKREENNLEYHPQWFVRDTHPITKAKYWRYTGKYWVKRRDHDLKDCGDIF
Chain of UniProt Q05933 (Q05933 whole entry): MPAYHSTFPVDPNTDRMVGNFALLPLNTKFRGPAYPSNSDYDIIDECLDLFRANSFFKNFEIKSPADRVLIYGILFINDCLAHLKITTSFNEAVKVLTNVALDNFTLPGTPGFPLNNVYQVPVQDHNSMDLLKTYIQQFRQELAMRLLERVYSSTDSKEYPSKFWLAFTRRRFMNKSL
Chain of UniProt P38788 (P38788 whole entry): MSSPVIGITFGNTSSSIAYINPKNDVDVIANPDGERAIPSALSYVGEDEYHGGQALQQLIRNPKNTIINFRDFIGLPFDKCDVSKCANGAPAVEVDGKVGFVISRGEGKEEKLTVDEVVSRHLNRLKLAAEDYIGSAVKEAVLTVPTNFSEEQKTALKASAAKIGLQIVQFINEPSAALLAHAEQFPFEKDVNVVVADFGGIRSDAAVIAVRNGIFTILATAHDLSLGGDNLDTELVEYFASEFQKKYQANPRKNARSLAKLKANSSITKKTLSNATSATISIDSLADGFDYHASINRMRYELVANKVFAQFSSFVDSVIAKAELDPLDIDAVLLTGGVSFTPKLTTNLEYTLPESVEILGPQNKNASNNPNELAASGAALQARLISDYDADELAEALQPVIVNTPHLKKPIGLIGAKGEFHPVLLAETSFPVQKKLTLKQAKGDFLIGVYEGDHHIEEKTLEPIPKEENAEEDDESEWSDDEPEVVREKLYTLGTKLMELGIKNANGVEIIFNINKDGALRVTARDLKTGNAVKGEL
Chain of UniProt P35735 (P35735 whole entry): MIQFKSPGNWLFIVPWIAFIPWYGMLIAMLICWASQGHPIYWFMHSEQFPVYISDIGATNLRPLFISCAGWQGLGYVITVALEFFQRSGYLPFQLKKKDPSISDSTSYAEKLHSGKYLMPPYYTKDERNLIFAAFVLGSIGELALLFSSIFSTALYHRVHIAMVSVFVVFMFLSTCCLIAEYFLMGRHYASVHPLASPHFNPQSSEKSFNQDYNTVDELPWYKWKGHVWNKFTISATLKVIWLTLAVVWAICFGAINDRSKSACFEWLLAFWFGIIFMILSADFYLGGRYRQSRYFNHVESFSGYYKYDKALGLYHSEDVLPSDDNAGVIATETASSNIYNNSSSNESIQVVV
Chain of UniProt P38328 (P38328 whole entry): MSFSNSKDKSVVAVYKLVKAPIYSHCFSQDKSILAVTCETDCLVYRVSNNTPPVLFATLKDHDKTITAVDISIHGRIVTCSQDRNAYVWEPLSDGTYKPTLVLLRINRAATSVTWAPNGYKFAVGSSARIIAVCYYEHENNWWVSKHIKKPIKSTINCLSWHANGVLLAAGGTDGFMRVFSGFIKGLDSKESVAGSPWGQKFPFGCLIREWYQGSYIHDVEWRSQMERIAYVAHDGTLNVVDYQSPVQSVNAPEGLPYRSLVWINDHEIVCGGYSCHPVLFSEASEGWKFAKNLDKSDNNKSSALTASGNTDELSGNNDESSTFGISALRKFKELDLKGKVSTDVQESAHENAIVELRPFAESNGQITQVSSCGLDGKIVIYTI
Chain of UniProt P33204 (P33204 whole entry): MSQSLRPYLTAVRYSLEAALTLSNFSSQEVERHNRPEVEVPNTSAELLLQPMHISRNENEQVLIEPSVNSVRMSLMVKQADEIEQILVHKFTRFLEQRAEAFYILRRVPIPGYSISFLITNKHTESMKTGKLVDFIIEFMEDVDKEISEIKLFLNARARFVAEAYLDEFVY
Chain of UniProt P11484 (P11484 whole entry): as the sequence (P40150 whole entry) above, with Q49E, I413M, V435C, S436A counted along it

An interaction score [1] of 0.77, an interaction score [2] of 0.805 and an interaction score [3] of 0.487 were found for “Myo5 with SH3 AncD (from UniProt Q04439)” in this work. The interaction score [4] was 0.701, the interaction score [5] was 0.0507 and the interaction score [6] was 0.938. It also gave an interaction score [7] of 0.551, an interaction score [8] of 0.785 and an interaction score [9] of 0.83. The interaction score [10] was 0.278, the interaction score [11] was 0.545 and the interaction score [12] was 0.827. For the same substance, the interaction score [13] was 0.838, the interaction score [14] was 0.318 and the interaction score [15] was 0.887. For the same substance, the interaction score [16] was 0.825, the interaction score [17] was 0.935 and the interaction score [18] was 0.855. For the same substance, the interaction score [19] was 0.862, the interaction score [20] was 0.878 and the interaction score [21] was 0.903. It also gave an interaction score [22] of 0.31, an interaction score [23] of 0.848 and an interaction score [24] of 0.254. For the same substance, the interaction score [25] was 0.862, the interaction score [26] was 0.463 and the interaction score [27] was 0.273. The interaction score [28] was 0.655, the interaction score [29] was 0.473 and the interaction score [30] was 0.687. For the same substance, the interaction score [31] was 0.309, the interaction score [32] was 0.589 and the interaction score [33] was 0.338. It also gave an interaction score [34] of 0.562, an interaction score [35] of 0.522 and an interaction score [36] of 0.352. For the same substance, the interaction score [37] was 0.793, the interaction score [38] was 0.952 and the interaction score [39] was 0.718. For the same substance, the interaction score [40] was 0.647, the interaction score [41] was 0.87 and the interaction score [42] was 0.353. For the same substance, the interaction score [43] was 0.351, the interaction score [44] was 0.968 and the interaction score [45] was 0.949.
